This experiment has as its target His-GD1 (N-terminally His-tagged GD1 domain of EngA) (Synechococcus elongatus PCC7942). Kind of experiment: pull-down; His-EngA or His-GD1 (6 μg) bound to DynaBeads-Histag, 6 μg PipX–ST added; 50 mM Tris-HCl pH 7, 0.1 M KCl, 10% glycerol, 10 mM MgCl2, 20 mM imidazole, 0.1% Triton-X100, with or without 1 mM GDP, room temperature; elution with 500 mM imidazole; Western blot with antisera against PipX and EngA. (In general: Immunoblotting shows a protein as a band on a membrane.)

Chain of His-GD1 (N-terminally His-tagged GD1 domain of EngA) (Synechococcus elongatus PCC7942) (Q31KP9 1-169): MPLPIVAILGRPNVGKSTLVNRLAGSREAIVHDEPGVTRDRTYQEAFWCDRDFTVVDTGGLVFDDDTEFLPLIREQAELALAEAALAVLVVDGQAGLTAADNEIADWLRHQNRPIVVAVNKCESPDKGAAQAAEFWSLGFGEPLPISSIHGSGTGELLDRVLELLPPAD

B1: PipX–ST (C-terminally Strep-tagged PipX) (natural protein)
chain: MASENYLNHPTFGLLYQICSFGDSKELFATLYAQRLFFLVAFDARGTRFEPIGRNEARMLVDNRLRQLRRDASLQEYNQLQQVFKQTFL
Turning to B1, the retention of PipX (PipX/GD1 band intensity ratio) relative to the PipX/EngA ratio with His-EngA turned out to be 10 fold.

The values are drawn from publication PMC8696166.
